Eight molecules from patent publication US20170368132A1 (published 2017) can be followed below.

Non-standard residues stand in square brackets, D forms with d. Groups on a side chain read outwards from the residue. *: point of attachment. 5FAM = O=C1OC2(c3ccc(O)cc3Oc3cc(O)ccc32)c2ccc(C(=O)*)cc21

Usually Kd stands for the equilibrium constant for the complex coming apart.

B1: Rad51 (S208E; A209D) (enzyme)
chain: MAMQMQLEANADTSVEEESFGPQPISRLEQCGINANDVKKLEEAGFHTVEAVAYAPKKELINIKGISEAKADKILAEAAKLVPMGFTTATEFHQRRSEIIQITTGSKELDKLLQGGIETGSITEMFGEFRTGKTQICHTLAVTCQLPIDRGGGEGKAMYIDTEGTFRPERLLAVAERYGLSGSDVLDNVAYARAFNTDHQTQLLYQAEDMMVESRYALLIVDSATALYRTDYSGRGELSARQMHLARFLRMLLRLADEFGVAVVITNQVVAQVDGAAMFAADPKKPIGGNIIAHASTTRLYLRKGRGETRICKIYDSPCLPEAEAMFAINADGVGDAKD
notes: Human RAD51 mutant tested by Y2H; also called human RAD51 S208E A209D
B2: Rad51 (F86E; A89E) (enzyme)
chain: MAMQMQLEANADTSVEEESFGPQPISRLEQCGINANDVKKLEEAGFHTVEAVAYAPKKELINIKGISEAKADKILAEAAKLVPMGETTETEFHQRRSEIIQITTGSKELDKLLQGGIETGSITEMFGEFRTGKTQICHTLAVTCQLPIDRGGGEGKAMYIDTEGTFRPERLLAVAERYGLSGSDVLDNVAYARAFNTDHQTQLLYQASAMMVESRYALLIVDSATALYRTDYSGRGELSARQMHLARFLRMLLRLADEFGVAVVITNQVVAQVDGAAMFAADPKKPIGGNIIAHASTTRLYLRKGRGETRICKIYDSPCLPEAEAMFAINADGVGDAKD
notes: Human RAD51 mutant tested by Y2H; also called human RAD51 F86E A89E
B3: Rad51 (S208L; A209E; M210A) (enzyme)
chain: MAMQMQLEANADTSVEEESFGPQPISRLEQCGINANDVKKLEEAGFHTVEAVAYAPKKELINIKGISEAKADKILAEAAKLVPMGFTTATEFHQRRSEIIQITTGSKELDKLLQGGIETGSITEMFGEFRTGKTQICHTLAVTCQLPIDRGGGEGKAMYIDTEGTFRPERLLAVAERYGLSGSDVLDNVAYARAFNTDHQTQLLYQALEAMVESRYALLIVDSATALYRTDYSGRGELSARQMHLARFLRMLLRLADEFGVAVVITNQVVAQVDGAAMFAADPKKPIGGNIIAHASTTRLYLRKGRGETRICKIYDSPCLPEAEAMFAINADGVGDAKD
notes: Human RAD51 mutant tested by Y2H; also called human RAD51 S208L A209E M210A
B4: Rad51 (A190L; A192L) (enzyme)
chain: MAMQMQLEANADTSVEEESFGPQPISRLEQCGINANDVKKLEEAGFHTVEAVAYAPKKELINIKGISEAKADKILAEAAKLVPMGFTTATEFHQRRSEIIQITTGSKELDKLLQGGIETGSITEMFGEFRTGKTQICHTLAVTCQLPIDRGGGEGKAMYIDTEGTFRPERLLAVAERYGLSGSDVLDNVLYLRAFNTDHQTQLLYQASAMMVESRYALLIVDSATALYRTDYSGRGELSARQMHLARFLRMLLRLADEFGVAVVITNQVVAQVDGAAMFAADPKKPIGGNIIAHASTTRLYLRKGRGETRICKIYDSPCLPEAEAMFAINADGVGDAKD
notes: Human RAD51 mutant tested by Y2H; also called human RAD51 A190L A192L
B5: Rad51 (Q202R, Y205D, Q206A) (enzyme)
chain: MAMQMQLEANADTSVEEESFGPQPISRLEQCGINANDVKKLEEAGFHTVEAVAYAPKKELINIKGISEAKADKILAEAAKLVPMGFTTATEFHQRRSEIIQITTGSKELDKLLQGGIETGSITEMFGEFRTGKTQICHTLAVTCQLPIDRGGGEGKAMYIDTEGTFRPERLLAVAERYGLSGSDVLDNVAYARAFNTDHQTRLLDAASAMMVESRYALLIVDSATALYRTDYSGRGELSARQMHLARFLRMLLRLADEFGVAVVITNQVVAQVDGAAMFAADPKKPIGGNIIAHASTTRLYLRKGRGETRICKIYDSPCLPEAEAMFAINADGVGDAKD
notes: Human RAD51 mutant tested by Y2H; also called human RAD51 Q202R Y205D Q206A

Assay [1] addresses T1, Rad51, fluorescently labelled (microscale thermophoresis) (UniProt Q06609 1-339, limits assumed, fluorescently labelled according to the manufacturer's protocol (site not stated)).
T1 construct: Purified labelled protein at about 500 nM; The buffer contained 0.5 mM ATP and 2.5 uM ssDNA
T1 sequence (looked up): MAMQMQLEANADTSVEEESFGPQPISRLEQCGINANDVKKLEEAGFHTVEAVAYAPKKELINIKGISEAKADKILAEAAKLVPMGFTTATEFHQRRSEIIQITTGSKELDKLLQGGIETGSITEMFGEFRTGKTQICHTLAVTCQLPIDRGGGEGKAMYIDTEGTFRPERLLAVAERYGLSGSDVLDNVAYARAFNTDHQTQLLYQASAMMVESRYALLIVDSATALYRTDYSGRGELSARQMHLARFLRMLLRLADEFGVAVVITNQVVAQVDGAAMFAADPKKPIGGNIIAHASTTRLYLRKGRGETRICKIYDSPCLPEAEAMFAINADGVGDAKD
The experiment in a line: microscale thermophoresis, 1 mM Ca2+ against no Ca2+. The protocol:
(§1) Microscale thermophoresis was performed as previously described (see, for e.g. Jerabek-Willemsen, M., Wienken, C. J., Braun, D., Baaske, P. & Duhr, S. Molecular interaction studies using microscale thermophoresis. Assay Drug Dev. Technol. 9, 342-353 (2011)). The affinity of the Compound was measured using the Monolith NT.115 from Nanotemper Technologies. Rad51 was fluorescently labelled according to the manufacturer's protocol and the labelled protein used for each assay was about 500 nM. A solution of unlabelled peptide was diluted for appropriate serial concentration gradient. The samples were loaded into silica capillaries (Polymicro Technologies). Measurements were performed at room temperature in buffer containing PBS, 0.1% Tween 20, 0.5 mM ATP, 2.5 uM ssDNA, with 1 mM CaCl2 (when mentioned). Measurements were done using 12% LED power and 60% MST power. The assays were repeated three times for each affinity measurement. Data analyses were performed using Nanotemper Analysis software and OriginPro 8.0 software provided by the manufacturer.

For assay [2], the target named is T1, Rad51, fluorescently labelled …. The experiment in a line: microscale thermophoresis, labelled Rad51 about 500 nM, PBS + 1 mM Ca2+. The protocol:
as §1
On the technique in general: Microscale thermophoresis detects binding through changes in fluorescence in a small temperature gradient.

The target is the same in assay [3]. The experiment in a line: microscale thermophoresis, labelled Rad51 about 500 nM, PBS. On the procedure:
as §1

Assay [4] concerns the target B3. In words: yeast two-hybrid, human RAD51 mutant. The protocol:
(§2) The ability of peptides to bind human RAD51 with various mutations was then tested by Y2H assay. […] While mutations affecting BRCA2 binding had no effect on peptide binding, mutations that affected RAD51-AP1 binding did disrupt peptide binding. As these mutations were at residues 202, 205, and 206, they were consistent with the previous fusion data showing binding somewhere in the 190-218 region, and indicated the peptide SEQ ID NO.:5 contacts at least residues 202, 205, and 206 of RAD51.

The target in the assay “Rad51 (F86E; A89E)” is B2. The experiment in a line: yeast two-hybrid, human RAD51 mutant. On the procedure:
as §2

Assay [5] deals with B5. The experiment in a line: yeast two-hybrid, human RAD51 mutant. On the procedure: as §2
The assay “Rad51 (A190L; A192L)” concerns the target B4. In words: yeast two-hybrid, human RAD51 mutant. The protocol:
as §2

For the assay “Rad51 (S208E; A209D)”, the target named is B1. In words: yeast two-hybrid, human RAD51 mutant. The protocol:
as §2

The target of a further assay is T2, H. sapiens Rad51 (H. sapiens, UniProt Q06609 1-339).
T2 construct: Expressed in yeast as a two-hybrid fusion; also called human RAD51
T2 sequence: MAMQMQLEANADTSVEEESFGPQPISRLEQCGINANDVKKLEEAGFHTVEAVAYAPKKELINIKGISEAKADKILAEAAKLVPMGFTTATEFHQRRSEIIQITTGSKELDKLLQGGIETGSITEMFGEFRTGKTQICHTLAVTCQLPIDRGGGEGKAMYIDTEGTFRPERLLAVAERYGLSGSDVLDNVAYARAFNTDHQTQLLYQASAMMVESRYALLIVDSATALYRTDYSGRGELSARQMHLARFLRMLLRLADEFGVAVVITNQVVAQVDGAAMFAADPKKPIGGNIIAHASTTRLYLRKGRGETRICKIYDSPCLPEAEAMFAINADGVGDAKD
In words: yeast two-hybrid, human RAD51 mutant. The protocol: as §2

As for Ac-K([C6-5FAM])RRRRRRRKRLGVRLRVSRML-NH2 (also called active peptide 5) [Compound 5, Ac-K(C6_5FAM)-RRRRRRRKRLGVRLRVSRML-NH2], in [1], the “fold increase of Kd (calcium raised from 0 to 1 mM)” value came out at 3.4 fold. The Kd in assay [2] is 28.9 nM; in [3], 8.37 nM.
In [3], Ac-[dL][dM][dR][dS][dV][dR][dL][dR][dV]G[dL][dR][dK][dR][dR][dR][dR][dR][dR][dR]-NH2 [Compound 10, Ac-lmrsvrlrvGlrkrrrrrrr-NH2] returned a Kd of 8.55 nM.
As for KEPTLLGFHTASGKKVKIAKESLDKVKNLFDEKEQ (Y2H fusion in yeast) [residues 1517-1551 of human BRCA2 used as Y2H bait], the binding result is listed as “no binding” in [4]; “binds” in the assay with Rad51 (F86E; A89E); “binds” in assay [5]; “no binding” in the assay with Rad51 (A190L; A192L); “no binding” with Rad51 (S208E; A209D).
Consider B1, for which the binding result in the assay with H. sapiens Rad51 is “binds”.
The same measure, in the same setting: in the case of B2 it was “no binding”.
On the same count and under the same terms, in the case of B3 it was “no binding”; in that of B4, “no binding”.
On the same count and under the same terms, the entry for B5 is “binds”.
